In paper PMC6784197:

Assays:
[1] = molecular target: <Her2/neu> Ha-Lw; assay: SPR; monovalent (affinity) set-up: antibody captured via anti-hFc on CM5 chip, huHer2 ECD as analyte 19-300 nM; Biacore T200, HBS-P+ pH 7.4, 25 °C; 1:1 Langmuir model
[2] = molecular target: <Her2/neu> Hb-Lw; assay: as above
[3] = molecular target: <Her2/neu> Hg-Lg; assay: as above
[4] = molecular target: <Her2/neu> Hg-Lw; assay: as above
[5] = molecular target: <EGFR> Ha-Lw; assay: SPR; monovalent (affinity) set-up: antibody captured via anti-hFc on CM5 chip, huEGFR ECD as analyte 19-300 nM; Biacore T200, HBS-P+ pH 7.4, 25 °C; 1:1 Langmuir model
[6] = molecular target: <EGFR> Hb-Lw; assay: as above
[7] = molecular target: <EGFR> Hw-La; assay: as above

Chain of <Her2/neu> Hb-Lw (heavy, as listed by the source, chain 1 of 2): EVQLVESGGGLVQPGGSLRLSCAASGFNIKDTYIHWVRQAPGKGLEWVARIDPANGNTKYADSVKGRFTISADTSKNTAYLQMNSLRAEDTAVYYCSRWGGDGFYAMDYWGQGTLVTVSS
Chain of <Her2/neu> Hb-Lw (light, as listed by the source, chain 2 of 2): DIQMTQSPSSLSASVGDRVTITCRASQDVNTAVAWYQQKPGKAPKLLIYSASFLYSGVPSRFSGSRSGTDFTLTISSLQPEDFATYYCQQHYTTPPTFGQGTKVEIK
Chain of <Her2/neu> Hg-Lg (heavy, as listed by the source, chain 1 of 2): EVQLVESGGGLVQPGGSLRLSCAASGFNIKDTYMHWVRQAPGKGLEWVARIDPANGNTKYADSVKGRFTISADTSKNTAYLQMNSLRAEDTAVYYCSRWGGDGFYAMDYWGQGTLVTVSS
Chain of <Her2/neu> Hg-Lg (light, as listed by the source, chain 2 of 2): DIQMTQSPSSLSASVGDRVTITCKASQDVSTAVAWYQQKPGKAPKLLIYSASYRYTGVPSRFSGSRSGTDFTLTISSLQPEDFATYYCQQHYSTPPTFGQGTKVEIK
Chain of <Her2/neu> Ha-Lw (heavy, as listed by the source, chain 1 of 2): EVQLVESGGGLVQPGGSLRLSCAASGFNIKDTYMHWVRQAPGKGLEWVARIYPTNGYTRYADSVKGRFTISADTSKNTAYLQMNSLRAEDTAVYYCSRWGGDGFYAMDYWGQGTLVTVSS

Kd [1]	Kd [2]	Kd [3]	Kd [4]	Kd [5]	Kd [6]	Kd [7]	Substance
2.1 nM	390 nM	390 nM	340 nM				huHer2 ECD (from UniProt P04626 23-652) (domain or fragment)
				0.73 nM	0.66 nM	3.5 nM	huEGFR ECD (from UniProt P00533 25-645) (domain or fragment)
